Measurements as given in patent US8586570.

PKCθ, sequence (Q04759 whole entry): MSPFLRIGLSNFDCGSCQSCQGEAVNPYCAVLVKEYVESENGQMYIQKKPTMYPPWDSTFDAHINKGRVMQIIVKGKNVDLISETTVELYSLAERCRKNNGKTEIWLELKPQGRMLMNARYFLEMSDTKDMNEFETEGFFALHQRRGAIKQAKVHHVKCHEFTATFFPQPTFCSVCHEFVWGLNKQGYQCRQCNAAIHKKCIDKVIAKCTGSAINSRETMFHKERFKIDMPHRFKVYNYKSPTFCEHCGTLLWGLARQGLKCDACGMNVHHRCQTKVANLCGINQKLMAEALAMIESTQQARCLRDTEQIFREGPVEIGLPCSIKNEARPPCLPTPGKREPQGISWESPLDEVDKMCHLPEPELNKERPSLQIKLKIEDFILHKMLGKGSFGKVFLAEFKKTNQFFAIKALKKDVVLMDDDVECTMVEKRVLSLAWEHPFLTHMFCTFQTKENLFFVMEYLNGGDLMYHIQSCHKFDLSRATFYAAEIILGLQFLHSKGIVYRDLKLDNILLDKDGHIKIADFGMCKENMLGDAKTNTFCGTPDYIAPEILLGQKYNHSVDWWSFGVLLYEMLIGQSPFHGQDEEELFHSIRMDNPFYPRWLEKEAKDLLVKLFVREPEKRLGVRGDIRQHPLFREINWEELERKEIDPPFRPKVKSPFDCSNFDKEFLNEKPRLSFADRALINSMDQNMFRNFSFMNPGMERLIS

## PKCβI
PKCα-S10
  phosphorylation activity (1 µM peptide, 2 ng kinase): PKCβI and PKCθ are slightly more active than PKCα

## PKCα
PKCα-S10
  KM: 0.12 µM
  Vmax (µmol min^-1 mg^-1) (µmol min^-1 mg^-1): 2.2
  Vmax/KM: 149000 min⁻¹ mg⁻¹
PKCα-S1
  KM: 8.6 µM
  Vmax (µmol min^-1 mg^-1) (µmol min^-1 mg^-1): 5.9
  Vmax/KM: 6200 min⁻¹ mg⁻¹
PKCα-S9
  KM: 0.093 µM
  Vmax (µmol min^-1 mg^-1) (µmol min^-1 mg^-1): 1.8
  Vmax/KM: 160000 min⁻¹ mg⁻¹

## PKCδ
PKCα-S10
  phosphorylation activity (1 µM peptide, 2 ng kinase): no activity is observed with PKCδ, PKCµ, and PKCν

## PKCε
PKCα-S10
  phosphorylation activity (1 µM peptide, 2 ng kinase): very little activity is detected with PKCε, PKCζ, PKCη and PKCι

## PKCγ
PKCα-S10
  phosphorylation activity (1 µM peptide, 2 ng kinase): PKCβII and PKCγ have comparable activities to that of PKCα

## PKCη
PKCα-S10
  phosphorylation activity (1 µM peptide, 2 ng kinase): very little activity is detected with PKCε, PKCζ, PKCη and PKCι

## PKCθ
PKCα-S10
  phosphorylation activity (1 µM peptide, 2 ng kinase): PKCβI and PKCθ are slightly more active than PKCα

## PKCβII
PKCα-S10
  phosphorylation activity (1 µM peptide, 2 ng kinase): PKCβII and PKCγ have comparable activities to that of PKCα
